Data: paper PMC2199935

Experiments:
[1] = biological target: beta-catenin (canine (endogenous in MDCK)) (UniProt B6V8E6); experiment: co-IP
[2] = biological target: p120/p100 (anti-p120 immunoreactive material), canine (canine (endogenous in MDCK)); experiment: co-IP

Row | Molecule | percent of the pool in association, normalised to 100% efficiency [1] [%] | percent of the pool in association, normalised to 100% efficiency [2] [%]
1 | p120/p100 (anti-p120 immunoreactive material), canine (natural protein) | 21 | –
2 | beta-catenin (natural protein) MATQADLMELDMAMEPDRKAAVSHWQQQSYLDSGIHSGATTTAPSLSGKGNPEEEDVDTTQVLYEWEQGFSQSFTQEQVADIDGQYAMTRAQRVRAAMFPETLDEGMQIPSTQFDAAHPTNVQRLAEPSQMLKHAVVNLINYQDDAELATRAIPELTKLLNDEDQVVVNKAAVMVHQLSKKEASRHAIMRSPQMVSAIVRTMQNTNDVETARCTAGTLHNLSHHREGLLAIFKSGGIPALVKMLGSPVDSVLFYAITTLHNLLLHQEGAKMAVRLAGGLQKMVALLNKTNVKFLAITTDCLQILAYGNQESKLIILASGGPQALVNIMRTYTYEKLLWTTSRVLKVLSVCSSNKPAIVEAGGMQALGLHLTDPSQRLVQNCLWTLRNLSDAATKQEGMEGLLGTLVQLLGSDDINVVTCAAGILSNLTCNNYKNKMMVCQVGGIEALVRTVLRAGDREDITEPAICALRHLTSRHQEAEMAQNAVRLHYGLPVVVKLLHPPSHWPLIKATVGLIRNLALCPANHAPLREQGAIPRLVQLLVRAHQDTQRRTSMGGTQQQFVEGVRMEEIVEGCTGALHILARDVHNRIVIRGLNTIPLFVQLLYSPIENIQRVAAGVLCELAQDKEAAEAIEAEGATAPLTELLHSRNEGVATYAAAVLFRMSEDKPQDYKKRLSVELTSSLFRTEPMAWNETADLGLDIGAQGEPLGYRQDDPSYRSFHSGGYGQDALGMDPMMEHEMGGHHPGADYPVDGLPDLGHAQDLMDGLPPGDSNQLAWFDTDL | – | 24
